Results on two proteins are retold here after paper doi:10.1101/509869 (bioRxiv, 2019).

This data set concerns the molecule itself. The data set can be described thus: SEC-MALS.

B1: TEX12 (human, amino acids 1-123, full length) (natural protein, UniProt Q9BXU0 1-123, looked up)
chain: MMANHLVKPDNRNCKRPRELESPVPDSPQLSSLGKSDSSFSEISGLFYKDEALEKDLNDVSKEINLMLSTYAKLLSERAAVDASYIDEIDELFKEANAIENFLIQKREFLRQRFTVIANTLHR
As for B1, the “stoichiometry N” value was 2.

B2: TEX12core (human TEX12, amino acids 49-123) (domain or fragment, UniProt Q9BXU0 49-123, looked up)
chain: KDEALEKDLNDVSKEINLMLSTYAKLLSERAAVDASYIDEIDELFKEANAIENFLIQKREFLRQRFTVIANTLHR
On to B2, for which the “stoichiometry N” value was found to be 2.
